Molecular target: T1, Bin2 (Bridging INtegrator-2) (human, UniProt Q9UBW5 1-565)
T1 construct: In vitro translated in the presence of 35S-methionine from the full-length cDNA
T1 sequence: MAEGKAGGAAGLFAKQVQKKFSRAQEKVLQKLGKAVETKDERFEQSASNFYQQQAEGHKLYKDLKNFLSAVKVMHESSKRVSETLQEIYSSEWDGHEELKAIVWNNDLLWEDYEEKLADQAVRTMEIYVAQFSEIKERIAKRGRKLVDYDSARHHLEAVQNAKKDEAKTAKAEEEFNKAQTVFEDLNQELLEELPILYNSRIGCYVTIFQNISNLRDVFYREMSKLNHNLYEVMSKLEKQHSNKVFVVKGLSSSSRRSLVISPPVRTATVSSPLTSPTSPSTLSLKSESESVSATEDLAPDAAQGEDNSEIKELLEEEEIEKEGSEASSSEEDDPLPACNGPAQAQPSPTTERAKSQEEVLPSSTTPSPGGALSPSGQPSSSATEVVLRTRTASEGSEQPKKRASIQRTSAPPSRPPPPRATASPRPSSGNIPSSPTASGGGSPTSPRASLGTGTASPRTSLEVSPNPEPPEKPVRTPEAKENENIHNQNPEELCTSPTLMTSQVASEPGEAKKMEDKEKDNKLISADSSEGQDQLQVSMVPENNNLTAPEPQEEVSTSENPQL
Assay: co-immunoprecipitation of in vitro translated proteins, deletion mutant
Source text: Stable complexes have been reported in yeast between RVS161 and RVS167 and in brain between amphiphysin and brain-specific splice isoforms of Bin1 [Navarro et al., Biochim. Biophys. Acta, 1343: 187-192 (1997); Wigge et al., Mol. Biol. Cell 8: 2003-2015 (1997)]. Since Bin1 is expressed in hematopoietic cells, whether Bin2 and Bin1 could also form a stable biochemical complex was investigated. For coimmunoprecipitation experiments, Bin1 was in vitro translated in the presence or absence of Bin2 and complex formation was assessed by SDS-PAGE and fluorography after immunoprecipitation with the Bin1 monoclonal antibody 99D [Wechsler-Reya et al., Cancer Res. 57: 3258-3263 (1997)].
Other deletion mutants of Bin1 lacking the so-called Unique central region, the Myc-binding domain, or the SH3 domain, interacted with Bin2 with the same efficiency as wild-type Bin1 (data not shown). It was concluded that Bin1 and Bin2 formed a BAR domain-dependent complex in cells.

binding result: no binding
B1: Bin1 deletion mutant Δ1-122 (other)
chain: LLTMDTYLGQFPDIKSRIAKRGRKLVDYDSARHHYESLQTAKKKDEAKIAKAEEELIKAQKVFEEMNVDLQEELPSLWNSRVGFYVNTFQSIAGLEENFHKEMSKLNQNLNDVLVGLEKQHGSNTFTVKA
